129 substances from the supplement of paper PMC12042874 can be followed below.

± gives the uncertainty stated by the source.

The series can be described thus: amyloid nucleation score (Sup35N fusion, yeast selection) (log enrichment); library NNK3; higher = more nucleation; inactive = no reads after selection. The method in brief:
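Sup35N fusions to peptides of 20 random codons were expressed in psi-negative yeast, induced 24 hours with 100 μM copper sulfate, and grown 7 days at 30°C on medium lacking adenine and uracil. Input and output plasmid inserts were sequenced by Illumina. The nucleation score is the DiMSum log enrichment of output over input reads, centred on the mode score of non-aggregating sequences. Sequences with under 100 input reads were excluded.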
Consider GSWTVLQNRHQAERVVSVYR, for which the amyloid nucleation score entry was “inactive”.
To ACLSFVYALYPLCLRLIS belongs “inactive”.
To VFNYVIGPGDKFAD belongs “inactive”.
To VAPLAILDRKSKSLVGNNMA belongs “inactive”; to EYIAI, “inactive”.
In the case of FDFKAYESCCSLLRYLMDPW, the amyloid nucleation score entry is “inactive”.
RVAQTAVRVSWALDRFYLWD: the amyloid nucleation score entry is “inactive”.
To SGSAELARLHYRMELKAPYL belongs “inactive”; to DCLFRNLMS, “inactive”.
To YLVAKDVSCNWVVTDGRLCH belongs “inactive”; to KGLVLAYILSRSVFERFKGG, “inactive”; to GYLWVLRLPGVSEFIEMDLQ, “inactive”.
To EMEASRG belongs “inactive”; to GIFCGLTGLIDGMRTQHSEL, 0.816 ± 0.12; to YVLELGAGGPKNMIHDMNAD, “inactive”.
Take RPAVLGPAFRYSSLAP: the amyloid nucleation score result is “inactive”.
GFRYALHSLIDR: the amyloid nucleation score entry was “inactive”.
Consider STRFMVIFDGISSVIGAIYG, for which the amyloid nucleation score result is “inactive”.
As for YIGCCWYSSCDRVSYRYSVM, the amyloid nucleation score is 2.78 ± 0.06.
TYLVNSDMMGDRIFGACRDV: the amyloid nucleation score result was “inactive”.
As for NYLFRT, the amyloid nucleation score entry is “inactive”.
To MINVPSVSYTMSSVIYTSFK belongs 2.39 ± 0.055; to DRILAYKTYLGNYLLVVLYN, “inactive”; to SYYLRLYEVTWFSRFGFDRS, “inactive”.
LDMFHSEIIFLMWYRGWVNA: the amyloid nucleation score result was “inactive”.
Take PCLFSQDRVRKTRSHKVNAE: the amyloid nucleation score result is “inactive”.
To NDHVRAFTDIFMCTMAIMND belongs “inactive”; to MSENLDKLKTFPPALE, “inactive”.
Take GRALNWTG: the amyloid nucleation score result is “inactive”.
To TVRYVVSASTWHMSLQSPTL belongs 1.33 ± 0.11; to VCFRNAFFHCSQMRTCNRVI, 0.262 ± 0.74; to IMLLVGAWTVSYNSCGSDAR, “inactive”.
To MGPRQKCALIATRKCQSVYL belongs -0.334 ± 1.1; to SSYAYMRVCAFKVVEMVYWR, “inactive”.
To ISVRFLCNYCRRVYIRRCAV belongs “inactive”; to FLLSVMRELSKYYYIIFSTS, “inactive”.
On to VWFGESAFRLVSELCIIKDV, for which the amyloid nucleation score entry was “inactive”.
To WCFCFMCSFMTKFFHYLGS belongs “inactive”.
To LTMVWDNIAMYMHWHMTTPI belongs “inactive”; to VARELGLCYVWAGSRGVSRV, -0.323 ± 1.8.
In turn, HGTAGLPK showed an amyloid nucleation score of 0.807 ± 0.14.
To CIMFVFILLQYAFYIYILLV belongs “inactive”; to IYWDTRLGFCAYAKC, “inactive”; to EFAEMHTAVLVERISSKVII, “inactive”.
To ETYWQINSTECKFTSFQRLF belongs “inactive”; to EIAVVRKVLYPYCRYVLICS, “inactive”.
To RCTELVKAISLVVVYIYDEG belongs “inactive”.
As for DILTMCEYDSDNNVGNLCYS, the amyloid nucleation score entry is “inactive”.
To YSGIAS belongs “inactive”; to FSNGMVLFF, “inactive”.
The substance RVERICDNVSSC returned an amyloid nucleation score of -0.577 ± 1.
For the substance RFSGM, the amyloid nucleation score entry is “inactive”.
Take MQFLRYSLPSDNRLPGCFL: the amyloid nucleation score entry is “inactive”.
To QFYTDSFLHIIFSWCGPLDQ belongs “inactive”; to FKGTTMIGRYINRVVMWAWS, “inactive”; to LDLDSNRFKVDLNDLYELVV, “inactive”.
To FWLRAVSLSWLMIEKKYMLR belongs “inactive”.
As to GLSHESTYKEEFESSATSGV, the amyloid nucleation score result is “inactive”.
As for DLTMVQLMIFMLIIIFFNLL, the amyloid nucleation score entry is “inactive”.
To HYYNSHSWATTTT belongs “inactive”; to GCYEGMLVIFLVFWLVVVYP, “inactive”.
To SRTYKHKALAQFPYKYWCVP belongs “inactive”; to LSYQDVWGSYGICEGSVWYS, “inactive”; to GSGGAMELVRFYYLNVAVCV, “inactive”.
On to YYLGSADGDPDIKWSLGYRK, for which the amyloid nucleation score result is “inactive”.
To QFSRPGIFNFHRWDSRYRAA belongs “inactive”.
To SGKILQRPLSWLSCVMQVES belongs “inactive”.
To CNVRFCIDFMIFMVISDSKD belongs 1.11 ± 0.14; to YLRVQDLWWNKFENARHSSI, “inactive”.
GPFVSFYFVFTRFNQTSLGF came in with an amyloid nucleation score of 1.57 ± 0.066.
To QDDAVFSLSI belongs “inactive”; to RSIDGKSYNLAYLLGGLRNS, 2.56 ± 0.065; to GSYRLLY, “inactive”.
To LGGTSNLMFGYMK belongs “inactive”; to TVANTNRTALNLMLEMGLGL, “inactive”; to SVLSVV, “inactive”.
To NWFCRGVIELPHPYAQTNFS belongs “inactive”.
In the case of GSWMCVMLRVFCSCSWLYCS, the amyloid nucleation score is -0.018 ± 0.93.
To VNLFHSYCMAISRIITISSL belongs “inactive”.
To TRAYVVAIDQYFRGRRRNI belongs “inactive”.
To GGLHSGVGKMAYELNMYS belongs “inactive”; to GYNVVKLCFIIILFVVEESS, “inactive”.
With CYAGRLSETSNWLLLCVELE, the amyloid nucleation score result is “inactive”.
To IRSMGRPTRKLCEPGFSALE belongs “inactive”; to NSFDFYAAGPY, “inactive”; to LIKVTS, “inactive”.
To GSDEEESLNCSYASSLTSVC belongs “inactive”; to QWFHVSLS, “inactive”; to VFLLCSLILWRAQLQLVCSL, “inactive”.
To MIFKKDSLGMILHFHHYFYN belongs “inactive”; to TCHDGHGAGRTVSGVFGGVA, “inactive”.
Regarding YACETVMSFVYMITFIRYLR, the amyloid nucleation score result was “inactive”.
To MFLRVSTTINAYFLRVRSLI belongs “inactive”; to VRNEYACNCTYMRIARLDE, 0.319 ± 0.29; to PTNLYCHRMGEVSVYCRNLR, “inactive”.
For the substance LRRLELIGLECNLTGSRAVP, the amyloid nucleation score entry was “inactive”.
Turning to TATYKSYCTL, the amyloid nucleation score result is “inactive”.
To TISPFLINMFWLSCTLMSQE belongs 0.558 ± 0.16.
In turn, VNDSAGVKLAVDCERTRKGG returned an amyloid nucleation score of -0.5 ± 0.98.
To RGIANCPHLCIAYLMLS belongs “inactive”; to REPVRLQNKRLPRCQRREWC, “inactive”.
For YYYLKCFTYCVLLFYYS, the amyloid nucleation score result was “inactive”.
To IIFNFFSRVLELLMLGYPYT belongs “inactive”; to LPAWKKTAFYFRYHGPFVRS, “inactive”.
Regarding IPIVRTLNLLASTLTPLCR, the amyloid nucleation score entry is “inactive”.
To YALVVR belongs “inactive”; to NTRLSMAF, “inactive”.
To DYALALVFAYCYEDNRMCCP belongs “inactive”.
With PRNHIRSLSM, the amyloid nucleation score entry is “inactive”.
As for DVGAPCGRFRPHFTNTCLDV, the amyloid nucleation score result is “inactive”.
Regarding YPLNLYYQAFYSLIGLVIPP, the amyloid nucleation score result is “inactive”.
To VHGVRV belongs “inactive”; to DFIRRVHYLKLSVWDVMTMR, “inactive”; to FSAPL, “inactive”.
To TYLLFGSTLGLSQWVYLDVE belongs “inactive”; to GFVNSVRFDLIECDVLKRSN, “inactive”.
For SDFAIWKDFDG, the amyloid nucleation score was 1.21 ± 0.1.
To YMLTEFYLFPDRILRHRRTD belongs “inactive”; to FKSSVKGEGYGKMGFQLLPF, “inactive”.
To TTSCEVAWFEICLSSLNFTM belongs “inactive”; to LVYVLDCRAKLTNYLISTLY, “inactive”; to YPLLEPSRVLVVCDGKGGVP, “inactive”.
To YQRYGRGFLRVSSFSLDSRM belongs -0.352 ± 0.81.
In the case of LRGYLHWLCSECSVLVSAVA, the amyloid nucleation score entry was “inactive”.
To KVTFKYLLKSVSLGQGTT belongs 0.341 ± 0.28.
To LYSLVFWNDSSCRSRLVTWF belongs “inactive”.
To NECYYLGRNWPYYGKSDMLL belongs 0.379 ± 0.27.
For the substance SMYIIMVCSSVSCWYFNRGH, the amyloid nucleation score is 0.94 ± 0.18.
To GCRNVVCVVDGFSVM belongs “inactive”.
